% positive (CAR+ Jurkat cells) data for one molecule are collected here from patent publication US20230174651A1.

In test [1] the target is CD79b CAR with CD8α hinge as the spacer. The experiment in a line: flow cytometry, Jurkat cells transduced with construct CAR-4, fluorescently labelled second antibody; gate set on untransduced (UTD) cells.
Target sequence (P01732 138-182): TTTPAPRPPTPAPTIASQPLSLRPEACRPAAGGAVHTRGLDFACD
For test [2] the target is unchanged. The test is described as follows: flow cytometry, Jurkat cells transduced with construct CAR-5, fluorescently labelled second antibody; gate set on untransduced (UTD) cells. For orientation: Flow cytometry measures light scatter and fluorescence of single cells or particles in a stream.
Test [3] shares this target. The experiment in a line: flow cytometry, Jurkat cells transduced with construct CAR-3, fluorescently labelled second antibody; gate set on untransduced (UTD) cells.
Test [4] shares this target. The test is described as follows: flow cytometry, Jurkat cells transduced with construct CAR-2, fluorescently labelled second antibody; gate set on untransduced (UTD) cells.
The target is the same in test [5]. The experiment in a line: flow cytometry, Jurkat cells transduced with construct CAR-1, fluorescently labelled second antibody; gate set on untransduced (UTD) cells.
Test [6] has the same target. The experiment in a line: flow cytometry, Jurkat cells transduced with construct CAR-6, fluorescently labelled second antibody; gate set on untransduced (UTD) cells.

B1: mouse FC version of CD8B575 (purified from mouse hybridoma clone) (antibody, V domains shown)
VH: QVQLQQSGGGLVQPGGSLKLSCAASGFTFSNYYMSWARQTPEKRLEWVAYISNDGDATYYPDSVKGRFTISRDNAKNTLYLQMSSLKSEDTAMYYCTREDYYSDYWFASWGQGTTVTVSS
VL: DIVMTQSQKFMSTTIEDRVSITCKASQNVGTAVAWYQQKPGQSPKLLIYSTSNRYTGVPDRFTGSGSGTDFTLTISNIQSEDLADYFCQQYSSYPLTFGGGTKLEIK
Consider B1, for which the % positive (CAR+ Jurkat cells) in test [1] amounted to 54.1%; in test [2] it was 84.5%; in test [3], 15.9%; in test [4], 41.7%; in test [5], 13%; in test [6] it was 84%.
